Read-outs that look alike come from different tables or passages of the source.
B1: A-93 (VHH)
VHH: QVQLQESGGGLVQAGGSLRLSCAASRRLYSSYSLGWFRQAPGKEREFVAALGWIANGTYYADSAKGRFTISRGNAMVFLQMNSLKSEDTAVYYCAARLGSVREAPREYTYWGQGTQVTVSS
B2: VHH A-28 (VHH)
VHH: QVQLQDSGGGLVQAGDSLRLSCTYSGRSFSNHAMGWFRQAPGKERGFVAAIGWINGGTYYADSVKGRFIISRDNDKNTLYLQMNNLKPEDTAVYYCAARNALRSISFNLSEYAYWGQGTQVTVSS
notes: source: E. coli BL21-AI, purified (urea lysis, Ni-NTA)

Columns and labels:
[1] = molecular target: 16 kDa heat shock protein of M. tuberculosis, in M. tuberculosis lysate (Mycobacterium tuberculosis (lysates of …, UniProt P9WMK1))
16 kDa heat shock protein of M. tuberculosis, in M. tuberculosis lysate (Mycobacterium tuberculosis, sequence (P9WMK1 whole entry): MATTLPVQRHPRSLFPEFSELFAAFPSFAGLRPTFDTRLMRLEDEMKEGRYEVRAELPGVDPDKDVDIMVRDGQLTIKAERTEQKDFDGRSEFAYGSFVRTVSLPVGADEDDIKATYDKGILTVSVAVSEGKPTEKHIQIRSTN

[2] = molecular target: T1, purified recombinant 16 kDa heat shock protein of M. tuberculosis (Mycobacterium tuberculosis, UniProt P9WMK1)
T1 sequence (P9WMK1 whole entry): as above

[3] = molecular target: T1, purified recombinant 16 kDa heat shock …; assay: far-Western, overlay or dot blot; conditions: both partners purified

Binder | binding result [1] | binding result [2] | binding result [3]
B1 | binds | binds | –
B2 | – | – | binds

Source: publication PMC3202562, “A Broad Set of Different Llama Antibodies Specific for a 16 kDa Heat Shock Protein of Mycobacterium tuberculosis” (PLoS ONE, 2011)
